From US20210284749A1 (ABL BIO, published 2021)

Assays:
[1] = molecular target: T1, human BCMA-Fc (R&D system, 193-BC-050) (human, UniProt Q02223 1-54, limits assumed); assay: competition ELISA on coated human BCMA-Fc; antibody titrated and mixed with 200 ng/ml BAFF, bound BAFF detected, absorbance 450 nm
T1 construct: Bought construct; not shown: Fc part
T1 sequence: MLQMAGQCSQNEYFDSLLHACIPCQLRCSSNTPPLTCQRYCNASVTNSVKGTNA
Description: Specifically, human BCMA-Fc (R&D system, 193-BC-050) was diluted using a PBS buffer, and then 100 ng of the dilution per well was coated on the ELISA plate. After the coating, the plate was emptied, and 100 μl of PBST containing 1% BSA was added to each well and incubated at 37° C. for 2 hours. The antibodies diluted at a concentration of 50 μg/ml to 0.00028 μg/ml were mixed with 10 ng/ml of APRIL protein (R&D, 5860-AP-010/CF) or 200 ng/ml of BAFF (R&D, 2149-BF-010/CF). An IgG1 antibody was used as a negative control, and a J6MO antibody was used as a comparative group.
Using anti-HA-HRP (Roche, 12013819001) or anti-His-HRP (Roche, 11965085001) as secondary antibodies, ELISA assay was performed as described in Example 1.4(1). As a comparative group, anti-BCMA monoclonal antibody J6MO (GSK) was used.

[2] = molecular target: T2, recombinant human BCMA (ELISA antigen, construct not specified) (human, UniProt Q02223 1-54); assay: ELISA, 100 ng coated antigen
T2 construct: Fc 1-51; Fc/His 1-51; Fc 4-48) was coated in these ELISAs; also called recombinant BCMA; recombinant protein
T2 sequence: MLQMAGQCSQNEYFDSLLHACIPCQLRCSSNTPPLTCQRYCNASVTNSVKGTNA
Description: (§1) 100 ng of human, monkey, mouse, and rat BCMA antigens prepared in Example 1.1 were coated on the bottom of the plate, and then coated with 3% BSA to block nonspecific binding. Using the selected anti-BCMA IgG antibodies as primary antibodies, and the anti-human Fab HRP (1:20000 dilution) as a secondary antibody, ELISA assay was performed as described in Example 1.3.
(§2) Absorbancies at 450 nm measured with a microplate reader are shown in FIG. 3, and half maximal effective concentrations (EC₅₀) (nM) are shown in Table 9.

[3] = molecular target: T2, recombinant human BCMA (ELISA antigen, …); assay: ELISA on coated recombinant human BCMA, antibody titrated, HRP anti-Fab detection, absorbance 450 nm
Description: Specific binding abilities of the anti-BCMA IgG antibodies isolated in Example 1.4 to recombinant BCMA protein were analyzed by ELISA.
Using recombinant human BCMA or monkey BCMA as an antigen, and HRP-conjugated Fab polychronal antibody reagent (Pierce, 31414) as a secondary antibody, ELISA was performed as described in Example 1.3.

[4] = molecular target: T3, mouse BCMA (1-49) fused to the Fc region of human IgG1 (mouse; human, UniProt O88472 1-49); assay: ELISA on 100 ng coated mouse BCMA, antibody titrated, anti-human Fab HRP, absorbance 450 nm
T3 construct: Sino Biological Inc. 50076-M01H; also called 50076-M01H; not shown: Fc region of human IgG1
T3 chain: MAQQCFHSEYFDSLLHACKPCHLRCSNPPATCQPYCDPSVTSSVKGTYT
Description: as §1, §2

[5] = molecular target: T2, recombinant human BCMA (ELISA antigen, …); assay: ELISA on 100 ng coated human BCMA, antibody titrated, anti-human Fab HRP, absorbance 450 nm
Description: as §1, §2

[6] = molecular target: T4, human BCMA expressed on cell surface (H929, OPM-2, CHOK1-hBCMA cells) (human, UniProt Q02223 1-184); assay: FACS on OPM-2 cells, 10 µg/ml antibody, anti-human Fc-FITC; open histogram shifted right of the filled control
T4 construct: also called cell-surface BCMA; BCMA on cell surface
T4 sequence: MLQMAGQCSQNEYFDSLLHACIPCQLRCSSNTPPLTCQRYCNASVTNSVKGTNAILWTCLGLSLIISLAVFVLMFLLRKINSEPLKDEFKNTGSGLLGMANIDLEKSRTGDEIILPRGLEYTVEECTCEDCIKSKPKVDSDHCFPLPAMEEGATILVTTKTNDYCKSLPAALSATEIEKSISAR
Description: (§3) Multiple myeloma cancer cells H929 (ATCC, CRL9068™) and OPM-2 cell line (DSMZ, ACC 50), which are known to express BCMA, were prepared, and human BCMA-overexpressed CHOK1-hBCMA cell line (constructed by ABIBio) were prepared.
(§4) 10 μg/ml of the seven IgG antibodies (B58, 5A6, 5D5, 5B5, 1H, 2G, and 5G) purified in Example 1.4 was added to the prepared cells, incubated at 4° C. for 1 hour, and then washed two times with a PBS buffer solution. The anti-human Fc-FITC was diluted in 1:400, incubated at 4° C. for 1 hour, and then washed with a PBS buffer solution. These processes were repeated. In FIGS. 2A and 2B, MFI indicates mean fluorescence intensity.

[7] = molecular target: T4, human BCMA expressed on cell surface …; assay: FACS on H929 cells, 10 µg/ml antibody, anti-human Fc-FITC; open histogram shifted right of the filled control
Description: as §3, §4

[8] = molecular target: T5, rat BCMA (1-49) fused to the Fc region of human IgG1 (rat; human); assay: ELISA on 100 ng coated rat BCMA, antibody titrated, anti-human Fab HRP, absorbance 450 nm
T5 construct: Sino Biological Inc. 80156-R01H; also called 80156-R01H; not shown: Fc region of human IgG1
T5 chain: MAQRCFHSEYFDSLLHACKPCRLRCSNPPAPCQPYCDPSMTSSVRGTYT
Description: as §1, §2

[9] = molecular target: T6, human BCMA-Fc/His (1-51) (human, UniProt Q02223 1-51); assay: BLI (Octet), antigen on Ni-NTA biosensor, IgG in solution
T6 construct: also called recombinant human BCMA-Fc/His; recombinant human BCMA-His (Sino Biological Inc.); not shown: Fc region; C-terminal His tag
T6 sequence: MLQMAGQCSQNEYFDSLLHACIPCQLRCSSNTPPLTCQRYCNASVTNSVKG
Description: A 96-well black microplate was mounted on a Biosensor tray case, 200 μl of 1XKB was added to each of the 8 wells, and then 8 Ni-NTA biosensors (Fortebio) were inserted thereto for hydration for 10 minutes. For antigen fixation, 5 μg/ml of recombinant human BCMA-His (Sino Biological Inc.) was diluted using 1XKB. Experiments were performed with a threshold of 0.5 to 1.0 nm, and Octet Data Acquisition 9.0 software was activated to create an Octet program template. The first step was for Baseline 1, the second step was for loading, and the threshold was fixed to 0.5 to 1.0 nm. In the third step, which was for Baseline 2, association for 5 minutes and dissociation for 20 minutes were performed. A plate temperature was fixed to 30° C., and the prepared buffer solution was placed in order into a new 96-well black microplate according to the Octet program template. 200 μl of 1XKB used as Baseline 1 and recombinant human BCMA-Fc/His which is an antigen to be loaded were diluted to 5 μg/ml, and 200 μl of the dilution was added thereto. After adding 200 μl of 1XKB used as Baseline 2, 200 μl of the antibody to be reacted with the antigen was dispensed, and the instrument was operated. After completion of the experiment, an association constant (kon), a dissociation constant (kdis), and an equilibrium dissociation constant (KD) for each antibody were analyzed and calculated with Octet Analysis 9.0 software.

B1: anti-BCMA IgG antibody B58 (antibody, V domains shown)
VH: EVQLLESGGGLVQPGGSLRLSCAASGFTFSNYDMSWVRQAPGKGLEWVSWIYPSDSSIYYADSVKGRFTISRDNSKNTLYLQMNSLRAEDTAVYYCARGPFANKYRQFDYWGQGTLVTVSS
VL: QSVLTQPPSASGTPGQRVTISCSGSSSNIGSNSVSWYQQLPGTAPKLLIYADSKRPSGVPDRFSGSKSGTSASLAISGLRSEDEADYYCGSWDYSLSGYVFGGGTKLTVL
notes: also called B58 antibody
[1]
  IC50 (read off the curve): ~5 nM
[2]
  EC50: 79 nM
[3]
  EC50 (read off the curve): ~5 ng/mL
[4]
  binding result: no binding (tested: about 30 µg/ml)
[5]
  EC50 (read off the curve): ~10 ng/mL
[6]
  MFI: 23.6
[7]
  MFI: 80.7
[8]
  binding result: no binding (tested: about 30 µg/ml)
[9]
  Kd: 0.0273 nM
  koff: 2e-05 s⁻¹
  kon: 735000 M⁻¹ s⁻¹
